The assay addresses T1, CD2 항원 (Jurkat T 세포 / T 림프구 표면) (UniProt P06729 25-351, limits assumed).
T1 construct: whole, on cells; also called CD2-positive Jurkat T 세포
T1 sequence (looked up): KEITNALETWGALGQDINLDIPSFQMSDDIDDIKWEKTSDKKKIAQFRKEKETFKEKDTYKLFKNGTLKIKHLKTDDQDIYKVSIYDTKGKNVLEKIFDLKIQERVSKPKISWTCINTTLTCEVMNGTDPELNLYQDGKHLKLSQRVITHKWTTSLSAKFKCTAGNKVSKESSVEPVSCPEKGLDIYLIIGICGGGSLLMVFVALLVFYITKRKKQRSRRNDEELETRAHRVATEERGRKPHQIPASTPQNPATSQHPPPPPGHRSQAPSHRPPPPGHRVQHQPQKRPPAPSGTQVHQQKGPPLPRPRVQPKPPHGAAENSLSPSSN
Description: cell-based ELISA on Jurkat T cells, FcR blocker, anti-6X HIS tag-HRP detection. (In general: An ELISA detects its analyte on a solid surface through an enzyme-linked reagent.)

B1: anti-CD20 scFv-LFA3-1 (other)
chain: FSQQIYGTWKGDVTFHVPSNVPLKEVLWKKQKDKVAELENSEFRAFSDFKGRVYLDTVSGSLTINSLQSEDFGEYEMESPNITDTMKFFLYVLESLPSPTEFGGGGSGGSGSGGGQVQLQQPGAELVKPGASVKMSCKASGYTFTSYNMHWVKQTPGRGLEWIGAIYPGNGDTSYNQKFKGKATLTADKSSSTAYMQLSSLTSEDSAVYYCARSTYYGGDWYFNVWGAGTTVTVSAGGGGSGGGGSGGGGSQIVLSQSPAILSASPGEKVTMTCRASSSVSYIHWFQQKPGSSPKPWIYATSNLASGVPVRFSGSGSGTSYSLTISRVEAEDAATYYCQQWTSNPPTFGGGTKLEIK
For B1, the binding result is given as “binds”.

For the origin of these results see patent publication KR20140021799A (dated 2014).
